According to US10370433B2, “Compositions and methods for diagnosis and treatment of cancer” (BIONTECH AG, priority 2015, dated 2019):

Tests used:
CHO-K1-huSeprase tumors = test: Biodistribution and tumor targeting of AlexaFluor-680 conjugates, near-infrared optical imaging; type: in vivo, Fox n1 nu mice
Description: For in vivo imaging assays female Fox n1 nu mice (6-8 weeks of age, Harlan, Envigo) were used. The experiments were performed according to national regulations and approved by the local animal experiments ethical committee. Subconfluent CHO-K1-huSeprase cells were harvested and resuspended in PBS to a density of 1×10^7 cells/ml. Prior to inoculation, cell viability was tested by 0.4% trypan blue exclusion assay (viable cells>90%). For subcutaneous injection 1×10^6 CHO-K1-huSeprase cells in 100 μl PBS were mixed with 100 μl Matrigel (Corning) and injected into the right side of the limb. When tumor volumes reached 600-800 mm^3, animals were randomly separated into several groups for different treatments (n=3 per each group). […] At different time points after the injection, mice were anaesthetized by inhalation of isoflurane. In vivo imaging was conducted using a Xenogen IVIS Spectrum imaging System (Perkin Elmer, USA). Maximal near infrared signals (NIRF) were quantified using Living Image 2.5 (Xenogen, Perkin Elmer) image analysis software. For ex vivo NIRF imaging, the mice were sacrificed, and the tumor and major organs of each mouse were excised, weighed and analyzed by Xenogen IVIS System.
To analyze the pharmacokinetic and tumor targeting properties of the AF680-(MC-FA-012)3 trimer biodistribution in female Fox n1 nu mice was monitored at six time points after injection (1, 2, 4, 6, 24 and 96 h). […] After each time point biodistibution was measured in vivo and ex vivo using a Xenogen Imaging system (FIG. 14 A+B). […] Overall, the background signals for the binder and for the non-binding control were in the same range.

[1] = target: T1, recombinant human Seprase (rhuSeprase) (Homo sapiens, UniProt Q12884); test: Surface plasmon resonance (Biacore T100) on immobilized rhuSeprase; type: binding
T1 construct: named pCEP4-IgKappa-huSeprase-coCHO_26-760aa-H6 and used for the generation of recombinant soluble human Seprase (rhuSeprase); mouse Ig kappa-chain V-J2-C secretion signal (N, cleaved yes); made in house; host or cells: FreeStyle CHO-S cells (transient transfection; purified from supernatant by Ni-chelate and SEC)
T1 sequence (Q12884 26-760): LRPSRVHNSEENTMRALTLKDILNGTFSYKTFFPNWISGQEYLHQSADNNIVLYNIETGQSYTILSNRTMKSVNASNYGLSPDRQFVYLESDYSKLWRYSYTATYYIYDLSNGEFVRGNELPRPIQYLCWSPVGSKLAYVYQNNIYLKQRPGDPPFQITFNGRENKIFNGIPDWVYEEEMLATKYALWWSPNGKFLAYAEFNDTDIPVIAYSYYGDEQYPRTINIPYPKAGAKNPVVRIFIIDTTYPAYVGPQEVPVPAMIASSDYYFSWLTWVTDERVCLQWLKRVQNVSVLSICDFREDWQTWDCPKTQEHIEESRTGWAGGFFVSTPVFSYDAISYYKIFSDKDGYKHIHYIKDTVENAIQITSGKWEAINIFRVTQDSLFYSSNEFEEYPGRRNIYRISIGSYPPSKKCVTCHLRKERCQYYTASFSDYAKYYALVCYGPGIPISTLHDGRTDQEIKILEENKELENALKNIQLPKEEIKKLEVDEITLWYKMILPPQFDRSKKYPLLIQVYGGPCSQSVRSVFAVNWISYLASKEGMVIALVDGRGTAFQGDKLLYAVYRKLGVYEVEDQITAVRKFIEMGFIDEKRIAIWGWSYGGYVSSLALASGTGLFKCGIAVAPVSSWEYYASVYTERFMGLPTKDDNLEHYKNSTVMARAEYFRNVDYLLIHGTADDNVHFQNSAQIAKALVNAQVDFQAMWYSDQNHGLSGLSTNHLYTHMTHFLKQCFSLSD

B1: AF680-(MC-FA-012)3: AlexaFluor 680 conjugated MC-FA-012 trimer (conjugate)
chain 1: GACPYSNWTPGRGPDCRRDSDCPGRCICRGNGYCG
chain 2: B1 chain 1
chain 3: B1 chain 1
modifications: left off: things letters cannot carry; small tags and cut ends
notes: AlexaFluor 680 conjugated MC-FA-012 trimer
With B1 the kidney signals (CHO-K1-huSeprase tumors; mouse, in vivo) was “strong kidney signals”, the “signals in lung, heart, spleen and liver” value (CHO-K1-huSeprase tumors; mouse, in vivo) was “generally low” and the tumor uptake (CHO-K1-huSeprase tumors; up to 24 h after injection) was “specific and significant tumor uptake”. The “offrate, times slower compared to MC-FA-012” value [1] was “around 134 times” and the “ka” value ([1]; 1:1 binding model) was 1.68e+07 M⁻¹ s⁻¹.
